The results in this text go back to publication PMC4434323.

Data set [1] concerns the target T1, tbx-39 (Y73F8A.16) (Caenorhabditis elegans) (UniProt Q9NA56).
T1 sequence: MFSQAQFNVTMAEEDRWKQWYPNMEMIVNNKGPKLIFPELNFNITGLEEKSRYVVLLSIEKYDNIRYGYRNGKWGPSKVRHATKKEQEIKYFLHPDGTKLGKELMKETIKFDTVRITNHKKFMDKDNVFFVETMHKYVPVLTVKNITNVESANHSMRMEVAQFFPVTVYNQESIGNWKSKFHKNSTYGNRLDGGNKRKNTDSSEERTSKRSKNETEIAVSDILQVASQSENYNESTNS

Data set [2] addresses gei-3 (T22H6.6) (Caenorhabditis elegans) (UniProt Q0G833).
Data set [3] concerns the target T2, zip-3 (W07G1.3) (Caenorhabditis elegans) (UniProt Q9XUK2).
T2 sequence: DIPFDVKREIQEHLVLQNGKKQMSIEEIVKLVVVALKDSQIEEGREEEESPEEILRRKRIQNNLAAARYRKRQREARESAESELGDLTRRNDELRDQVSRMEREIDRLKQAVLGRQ

The target of data set [4] is atf-7 (C07G2.2) (Caenorhabditis elegans) (UniProt Q86MD3).
For data set [5], the target named is T3, tbx-38 (C24H11.3) (Caenorhabditis elegans) (UniProt Q9XVD5).
T3 sequence: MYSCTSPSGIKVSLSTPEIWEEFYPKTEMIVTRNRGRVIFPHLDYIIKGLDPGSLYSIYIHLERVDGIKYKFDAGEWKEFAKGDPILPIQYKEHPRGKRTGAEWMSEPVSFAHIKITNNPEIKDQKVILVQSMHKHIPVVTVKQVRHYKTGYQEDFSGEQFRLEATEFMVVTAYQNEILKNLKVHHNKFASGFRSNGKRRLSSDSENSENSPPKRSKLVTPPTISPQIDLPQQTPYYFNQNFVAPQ

Data set [6] concerns the target T4, atf-5 (T04C10.4) (Caenorhabditis elegans) (UniProt Q22156).
T4 sequence: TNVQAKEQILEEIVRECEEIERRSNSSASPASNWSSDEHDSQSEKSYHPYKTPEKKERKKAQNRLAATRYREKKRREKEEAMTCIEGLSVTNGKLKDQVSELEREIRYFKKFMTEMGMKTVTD

The target in data set [7] is T5, tbx-43 (Y46E12A.4) (Caenorhabditis elegans) (UniProt Q1T6W8).
T5 sequence: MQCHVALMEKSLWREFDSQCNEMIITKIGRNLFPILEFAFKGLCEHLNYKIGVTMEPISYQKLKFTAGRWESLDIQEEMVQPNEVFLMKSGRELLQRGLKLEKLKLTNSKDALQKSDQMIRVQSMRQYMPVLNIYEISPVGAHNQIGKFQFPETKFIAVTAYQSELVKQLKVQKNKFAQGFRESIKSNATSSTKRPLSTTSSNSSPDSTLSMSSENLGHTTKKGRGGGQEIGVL

atf-7 (C07G2.2) (Caenorhabditis elegans), sequence (Q86MD3 339-508): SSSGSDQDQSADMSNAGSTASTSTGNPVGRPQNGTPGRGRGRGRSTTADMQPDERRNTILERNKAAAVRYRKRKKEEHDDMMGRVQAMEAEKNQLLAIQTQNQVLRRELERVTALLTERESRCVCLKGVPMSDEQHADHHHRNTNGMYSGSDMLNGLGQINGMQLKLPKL
gei-3 (T22H6.6) (Caenorhabditis elegans), sequence (Q0G833 entry or part of it): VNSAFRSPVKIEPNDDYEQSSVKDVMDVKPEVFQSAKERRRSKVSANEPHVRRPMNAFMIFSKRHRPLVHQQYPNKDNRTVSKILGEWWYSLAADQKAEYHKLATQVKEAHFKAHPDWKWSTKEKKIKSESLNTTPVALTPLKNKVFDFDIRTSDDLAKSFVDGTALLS

In data set [1], “AAACTTGG (double strand) [8-mer AAACTTGG]” displayed a binding signal (PBM E-score (-0.5 to 0.5)) of 0.487.

On to “AAATGAAT (double strand) [8-mer AAATGAAT]”, for which the binding signal (PBM E-score (-0.5 to 0.5)) in data set [2] amounted to 0.472. For the sequence “AACGTCAT (double strand) [8-mer AACGTCAT]”, the binding signal (PBM E-score (-0.5 to 0.5)) is 0.486 in data set [3] and 0.495 in data set [4]. Consider “AACTTAGC (double strand) [8-mer AACTTAGC]”, for which, in data set [1], the binding signal (PBM E-score (-0.5 to 0.5)) came out at 0.493.

As for “AACTTAGT (double strand) [8-mer AACTTAGT]”, the binding signal (PBM E-score (-0.5 to 0.5)) in data set [1] amounted to 0.479. On the same count and under the same terms, next, “AACTTCGC (double strand) [8-mer AACTTCGC]”: 0.467; “AACTTGGA (double strand) [8-mer AACTTGGA]”: 0.473.

“AACTTGGC (double strand) [8-mer AACTTGGC]” displayed a binding signal (PBM E-score (-0.5 to 0.5)) in data set [1] of 0.497. On to “AACTTGGT (double strand) [8-mer AACTTGGT]”, for which, in data set [1], the binding signal (PBM E-score (-0.5 to 0.5)) is 0.496. In the case of “AAGTGTGA (double strand) [8-mer AAGTGTGA]”, the binding signal (PBM E-score (-0.5 to 0.5)) in data set [5] turned out to be 0.494. “AATGAATG (double strand) [8-mer AATGAATG]” returned a binding signal (PBM E-score (-0.5 to 0.5)) in data set [2] of 0.481. For “ACGTCATA (double strand) [8-mer ACGTCATA]”, the binding signal (PBM E-score (-0.5 to 0.5)) in data set [6] is 0.464; in data set [3], 0.493; in data set [4], 0.497. As for “ACGTCATG (double strand) [8-mer ACGTCATG]”, the binding signal (PBM E-score (-0.5 to 0.5)) in data set [3] was found to be 0.486; in data set [4] it was 0.496.

For the sequence “ACTTGGCA (double strand) [8-mer ACTTGGCA]”, the binding signal (PBM E-score (-0.5 to 0.5)) in data set [1] was 0.492. Consider “ACTTGGTA (double strand) [8-mer ACTTGGTA]”, for which, in data set [1], the binding signal (PBM E-score (-0.5 to 0.5)) is 0.472.

“AGATGACG (double strand) [8-mer AGATGACG]” returned a binding signal (PBM E-score (-0.5 to 0.5)) in data set [3] of 0.487. As for “AGGTGCGA (double strand) [8-mer AGGTGCGA]”, the binding signal (PBM E-score (-0.5 to 0.5)) in data set [7] was 0.48; in data set [5], 0.49. “AGGTGTCA (double strand) [8-mer AGGTGTCA]” showed a binding signal (PBM E-score (-0.5 to 0.5)) in data set [7] of 0.497.

For “AGGTGTGA (double strand) [8-mer AGGTGTGA]”, the binding signal (PBM E-score (-0.5 to 0.5)) in data set [7] came out at 0.499; in data set [5], 0.498. The like results for “AGGTGTTA (double strand) [8-mer AGGTGTTA]” were, in that order, 0.497 and 0.494. Regarding “AGTGTGAA (double strand) [8-mer AGTGTGAA]”, the binding signal (PBM E-score (-0.5 to 0.5)) in data set [7] worked out at 0.494; in data set [5] it was 0.496. “ATATGACG (double strand) [8-mer ATATGACG]” displayed a binding signal (PBM E-score (-0.5 to 0.5)) in data set [3] of 0.493. In turn, “ATATGATG (double strand) [8-mer ATATGATG]” yielded a binding signal (PBM E-score (-0.5 to 0.5)) in data set [3] of 0.486. In data set [2], “ATCAATGA (double strand) [8-mer ATCAATGA]” registered a binding signal (PBM E-score (-0.5 to 0.5)) of 0.485. Still for that read-out and setting: next, “ATCAATGG (double strand) [8-mer ATCAATGG]”: 0.477.

Sequence “ATCACACC (double strand) [8-mer ATCACACC]” showed a binding signal (PBM E-score (-0.5 to 0.5)) in data set [7] of 0.486.

As to “ATGAATGA (double strand) [8-mer ATGAATGA]”, in data set [2], the binding signal (PBM E-score (-0.5 to 0.5)) was 0.489. Same read-out and setting: next, “ATGAATGG (double strand) [8-mer ATGAATGG]”: 0.489. “ATGACGCG (double strand) [8-mer ATGACGCG]” displayed a binding signal (PBM E-score (-0.5 to 0.5)) in data set [3] of 0.488.

Regarding “ATTCACAC (double strand) [8-mer ATTCACAC]”, the binding signal (PBM E-score (-0.5 to 0.5)) in data set [7] is 0.489; in data set [5], 0.494. “ATTCGCAC (double strand) [8-mer ATTCGCAC]”: the binding signal (PBM E-score (-0.5 to 0.5)) in data set [5] worked out at 0.489.

For “CATTCATA (double strand) [8-mer CATTCATA]”, the binding signal (PBM E-score (-0.5 to 0.5)) in data set [2] was found to be 0.474. For the sequence “CATTGATA (double strand) [8-mer CATTGATA]”, the binding signal (PBM E-score (-0.5 to 0.5)) in data set [2] came out at 0.472. “CCAAGTTA (double strand) [8-mer CCAAGTTA]” yielded a binding signal (PBM E-score (-0.5 to 0.5)) in data set [1] of 0.495.

The sequence “CCAAGTTC (double strand) [8-mer CCAAGTTC]” displayed a binding signal (PBM E-score (-0.5 to 0.5)) in data set [1] of 0.477. In data set [2], “CCCATTCA (double strand) [8-mer CCCATTCA]” gave a binding signal (PBM E-score (-0.5 to 0.5)) of 0.478. In data set [1], “CTAAGTTA (double strand) [8-mer CTAAGTTA]” registered a binding signal (PBM E-score (-0.5 to 0.5)) of 0.48.

On to “CTACCAAG (double strand) [8-mer CTACCAAG]”, for which the binding signal (PBM E-score (-0.5 to 0.5)) in data set [1] is 0.473. Turning to “CTTGGCAC (double strand) [8-mer CTTGGCAC]”, in data set [1], the binding signal (PBM E-score (-0.5 to 0.5)) came to 0.477.

The sequence “GAGTGTGA (double strand) [8-mer GAGTGTGA]” yielded a binding signal (PBM E-score (-0.5 to 0.5)) in data set [5] of 0.484. “GATGACGC (double strand) [8-mer GATGACGC]” returned a binding signal (PBM E-score (-0.5 to 0.5)) in data set [3] of 0.493. Sequence “GGGTGCGA (double strand) [8-mer GGGTGCGA]” registered a binding signal (PBM E-score (-0.5 to 0.5)) in data set [5] of 0.485. Take “GGGTGTCA (double strand) [8-mer GGGTGTCA]”: the binding signal (PBM E-score (-0.5 to 0.5)) in data set [7] worked out at 0.484. For the sequence “GGGTGTGA (double strand) [8-mer GGGTGTGA]”, the binding signal (PBM E-score (-0.5 to 0.5)) in data set [7] stood at 0.49; in data set [5], 0.487.

For “GGTGCGAA (double strand) [8-mer GGTGCGAA]”, the binding signal (PBM E-score (-0.5 to 0.5)) was 0.48 in data set [7] and 0.494 in data set [5]. Turning to “GGTGTCAA (double strand) [8-mer GGTGTCAA]”, the binding signal (PBM E-score (-0.5 to 0.5)) in data set [7] came out at 0.495. For “GGTGTGAA (double strand) [8-mer GGTGTGAA]”, the binding signal (PBM E-score (-0.5 to 0.5)) was 0.499 in data set [7] and 0.497 in data set [5]. The like results for “GTGTGAAA (double strand) [8-mer GTGTGAAA]” were, in that order, 0.494 and 0.483. The like results for “GTGTGAAC (double strand) [8-mer GTGTGAAC]” were, in that order, 0.485 and 0.492.

With “TCAATGAA (double strand) [8-mer TCAATGAA]”, the binding signal (PBM E-score (-0.5 to 0.5)) in data set [2] is 0.485. The same measure, in the same setting: the result for “TCAATGGA (double strand) [8-mer TCAATGGA]” reads 0.473; that for “TCAATTGA (double strand) [8-mer TCAATTGA]”, 0.484. The same measure, in the same setting: next, “TCCATTCA (double strand) [8-mer TCCATTCA]”: 0.48; “TGAATGAA (double strand) [8-mer TGAATGAA]”: 0.491; “TGAATTAA (double strand) [8-mer TGAATTAA]”: 0.474. As for “TGACATCA (double strand) [8-mer TGACATCA]”, the binding signal (PBM E-score (-0.5 to 0.5)) was 0.468 in data set [6] and 0.49 in data set [3].

In data set [1], “TGTACCAA (double strand) [8-mer TGTACCAA]” yielded a binding signal (PBM E-score (-0.5 to 0.5)) of 0.485.
